Here are results for three molecules from US20230295316A1 (FRED HUTCHINSON CANCER CENTER, published 2023).

The target of assay [1] is T1, human interleukin-3 (IL-3) receptor alpha-chain (CD123), on cells (human, UniProt P26951 19-378).
T1 construct: whole, on cells; also called human CD123
Description: flow cytometry (PE-A), recombinant human IgG4 mAb + labeled secondary antibody, parental MOLM-13 cells against MOLM-13 CD123KO. The source says:
FIGS. 20A-20B. MOLM-13 cells with CRISPR/Cas9-mediated knockout of the CD123 locus (MOLM-13^CD123KO), parental MOLM-13 cells (endogenously expressing CD123) (FIG. 20A), ML-1 cells with CRISPR/Cas9-mediated knockout of the CD123 locus (ML-1^CD123KO), and ML-1^CD123KO cells in which human CD123 was re-expressed via lentivirus-mediated gene expression (FIG. 20B) were left untreated or treated with recombinant human anti-human CD123 mAbs (clones 1B5, 1D9, 1E3, 1F2, and 1G5; all human IgG4 frameworks) and a labeled secondary antibody before flow cytometric analysis.

Assay [2] concerns the target T1, human interleukin-3 (IL-3) receptor …. Description: flow cytometry (APC-A), mAb at 2 µg/mL + labeled secondary antibody; RS4;11 transduced with human CD123, TF-1, KG-1, MOLM-13 cells. On the procedure: FIG. 1. Parental human RS4;11 cells (endogenously lacking CD123), RS4;11 cells transduced with human CD123, CD123-expressing human AML cells lines (TF-1, KG-1, MOLM-13), and MOLM-13 cells with CRISPR/Cas9-mediated knockout of the CD123 locus (CD123^KO) were left untreated or treated with murine anti-human CD123 mAbs (10C4, 5G6, 11F11, 1H8; used at 2 µg/mL) or a commercial anti-CD123 mAbs (7G3, used at 2 µg/mL) and a labeled secondary antibody before flow cytometric analysis.
For orientation: In flow cytometry, cells or beads pass a laser one at a time.

Assay [3] has the same target. Description: flow cytometry (APC-A), 30 min at 4 °C; bound fusion protein detected with APC-anti-hFc (tubes 1-5) or through Y-DOTA-biotin and APC-SA (tubes 6-8); RS4;11 cells expressing human CD123. The method, then:
FIG. 24. Flow cytometry-based binding assay of monomeric anti-CD123 BsAb derived from 10C4 binding sequences. 0.4×10⁶ CD123-negative parental RS4;11 cells (RSA) or RSA cells engineered to express human CD123 (RS4-CD123) were incubated with or without CD123 bispecific fusion protein from purification (FP) or crude supernatant (load), with or without Y-DOTA-biotin. After incubating for 30 min at 4° C. cells were washed twice and assayed by flow cytometry with fluorophore-labeled anti-human Fc receptor secondary Ab (tubes 1-5) to detect bound bispecific fusion protein, or fluorophore labeled […] secondary Ab (tubes 6-8) to detect functional capacity of bispecific fusion protein to bind both CD123+ target cells and the radioligand, Y-DOTA-biotin.

B1: 123-ATX1F2, fully human recombinant antibody, human IgG4 framework (antibody)
heavy: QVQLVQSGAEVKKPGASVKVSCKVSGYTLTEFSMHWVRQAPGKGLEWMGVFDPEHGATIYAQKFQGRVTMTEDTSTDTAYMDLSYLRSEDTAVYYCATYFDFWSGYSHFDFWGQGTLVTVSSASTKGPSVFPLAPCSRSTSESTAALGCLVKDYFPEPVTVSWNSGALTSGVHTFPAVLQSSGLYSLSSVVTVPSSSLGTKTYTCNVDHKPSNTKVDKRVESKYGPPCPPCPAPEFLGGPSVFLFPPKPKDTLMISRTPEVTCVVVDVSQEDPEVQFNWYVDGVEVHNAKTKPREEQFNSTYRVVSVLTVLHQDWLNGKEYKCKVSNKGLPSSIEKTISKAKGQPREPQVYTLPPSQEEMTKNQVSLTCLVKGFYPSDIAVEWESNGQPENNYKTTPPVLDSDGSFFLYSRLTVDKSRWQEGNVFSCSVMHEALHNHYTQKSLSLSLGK
light: DIQMTQSPSSLSASVGDRVTITCRASQGIRNDLGWYQQRPGKAPKRLIYAASSLQSGVPSRFSGSGSGTEFTLAISSLQPEDFATYSCLQHNSYPWTFGQGTKVEIKRTVAAPSVFIFPPSDEQLKSGTASVVCLLNNFYPREAKVQWKVDNALQSGNSQESVTEQDSKDSTYSLSSTLTLSKADYEKHKVYACEVTHQGLSSPVTKSFNRGEC
notes: also called 1F2 (human IgG4)
As for B1, the binding result in assay [1] is “binds”.

B2: 123-11F11 (murine anti-CD123 antibody, IgG1 isotype, Kappa Light Chain) (antibody, V domains shown)
VH: EVTLVESGGGLEQPGGSLSLSCAASGFTFTDYYMSWVRQPPGKALEWLALIRNKANGYTTEYSASVKGRFTISRDNSQSILYLQMNALRAEDSATYYCARQVRNYYGYEEDALDYWGQGTSVTVSS
VL: DIVLTQSPASLAVSLGQRATISCRASESLDFYGNSFMHWYQQKSGQPPKLLISRASNLESGIPPRFSGSGSRTDFTLTIDPVEADDVATYYCQQSYEDPYTFGGGTKLEIK
notes: murine IgG1, kappa
Regarding B2, the binding result in assay [2] is given as “binds”.

B3: 10C4-Fc-C825 monomeric construct (monomeric anti-CD123 x anti-Y-DOTA bispecific antibody) (bispecific antibody, human IgG1)
chain: DIVMSQSPSSLAVSAGEKVTMSCKSSQSLLSSGTRKNYLAWYQQKPGQSPKLLIYWASTRESGVPDRFTGSGSGTDFTLTISSVQAEDLAVYYCKQSYILFTFGSGTKLEIKGGGSGGGGSGGGGSGGGGSSQVQLKESGPGLVAPSQNLSITCTVSGFSLTTYDINWIRQPPGKGLEWLGVIWTGGGTNYNSAFMSRLSISKDNSKSQVFLKMNSLQTDDTAMYYCVRGDTYHYALDFWGQGTSVTVSSLEPKSSDKTHTSPPSPAPELLGGPSVFLFPPKPKDTLMISRTPEVTCVVVDVSHEDPEVKFNWYVDGVEVHNAKTKPREEQYNSTYRVVSVLTVLHQDWLNGKEYKCKVSNKALPAPIEKTISKAKGQPREPQVYTLPPSRDELTKNQVSLTCRVKGFYPSDIAVEWESNGQPENNYKTTPPVLDSDGSFHLESKLTVDKSRWQQGNVFSCSVMHEGLHNHYTQKSLSLSPGKVDGASSHVNVSSPSVQDIHVKLQESGPGLVQPSQSLSLTCTVSGFSLTDYGVHWVRQSPGKGLEWLGVIWSGGGTAYNTALISRLNIYRDNSKNQVFLEMNSLQAEDTAMYYCARRGSYPYNYFDAWGCGTTVTVSSGGGGSGGGGSGGGGSQAVVIQESALTTPPGETVTLTCGSSTGAVTASNYANWVQEKPDHCFTGLIGGHNNRPPGVPARFSGSLIGDKAALTIAGTQTEDEAIYFCALWYSDHWVIGGGTRLTVLG
notes: Single chain: 10C4 VL, linker 1, 10C4 VH, hinge and human IgG1 Fc (monomerising substitutions), linker 2, C825 VH, linker 3, C825 VL; also called monomeric 10C4 BsAb; monomeric anti-CD123 BsAb
On to B3, for which, in assay [3], the binding result is recorded as “binds”.
